We go through one molecule from US20160289336A1 (F STAR BIOTECHNOLOGY, published 2016).

Usually EC50 stands for the midpoint of the concentration-response curve. A low value points to greater potency.

In test [1] the target is T1, dimeric HER2 (extracellular domain of HER2 with Fc tag, R&D) (human, UniProt P04626 23-652).
T1 construct: Bought protein; also called HER2 ECD Fc-tag; Fc-tagged HER2 ECD; not shown: Fc tag of the bought R&D protein
As to the kind of experiment: ELISA, dimeric HER2 (ECD Fc-tag) coated at 2 µg/ml, biotinylated H561-4, Strep-HRP. The procedure:
(§1) Monomeric HER2 (HER2 ECD untagged) and dimeric HER2 (HER2 ECD Fc-tag) were immobilised at 2 μg/ml on a 96-well maxisorp plate (Nunc) in PBS overnight at 4° C. The plates were blocked for 1 hour with 200 μl of 5% BSA in PBS. […] The dilution series was removed and the plate was washed 3× with phosphate buffered saline with Tween 20 (PBST).
(§2) A 1:5000 dilution of Strep-HRP (Abcam ab) was prepared in 5% BSA and 100 μl was added to the plate and incubated for 1 hour at RT. The plate was then washed 3× with PBST before 100 μl of TMB (Roche) were added, and the plate incubated at RT for 2 mins. The reaction was stopped using 100 μl of 2 M H₂SO₄ and the plate was read at 450 nm.

For test [2], the target named is T2, monomeric HER2 (extracellular domain of HER2 without tag) (human, UniProt P04626 23-652).
T2 construct: also called HER2 ECD untagged; untagged HER2 ECD, in house
Nature of the test: ELISA, monomeric HER2 (ECD untagged) coated at 2 µg/ml, biotinylated H561-4, Strep-HRP; monomeric HER2, not dimeric HER2. As for the experimental part: as §1, §2

B1: antigen-binding Fc fragment H561-4 (designed binder)
chain: TCPPCPAPELLGGPSVFLFPPKPKDTLMISRTPEVTCVVVDVSHEDPEVKFNWYVDGVEVHNAKTKPREEQYNSTYRVVSVLTVLHQDWLNGKEYKCKVSNKALPAPIEKTISKAKGQPREPQVYTLPPSRDEFFTYWVSLTCLVKGFYPSDIAVEWESNGQPENNYKTTPPVLDSDGSFFLYSKLTVDRRRWTAGNVFSCSVMHEALHNHYTQKSLSLSPGK
notes: C-terminal K or GK may be clipped in manufacture; also called FS102; Fcab
Take B1: the results for the EC50 in test [1] and in test [2] were 1.7 nM and 20.6 nM, respectively.
